Assay: yeast display, Sf9 membrane polyspecificity reagent, FACS + sequencing; frameworks hold sequencing errors
Outline: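 Polyreactivity labels are assigned by the sorting gate from which each nanobody was recovered. The gates were low and high (top ~1%), set on anti-HA fluorescence for expression and streptavidin fluorescence for reagent binding. Before sorting, galactose-induced (36–48 hours) yeast display cells were stained for 1 hour at 4 °C with 10% biotinylated, detergent-solubilized Sf9 membrane reagent.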

## QVQLVESGGGLVQAGGSLRLSCAASGSTFGPYAMGWYRPAPGKERELVAAIRSGGSTYYADSVKGRFTISRDNAKNTVYLQMNSLKPEDTAVYYCAAGGHHSYTYWIYYYWGQGTQVTVSS
  polyreactivity (PSR sort gate): low polyreactivity

## QVQLVESGGGLVQAGGSLSLSCASSGSIFVRNVMGWYRQAPWKERELVATIRTRGGSTSYADSVKGRFTISRDNAKNTVYLQMNSLTPEDTAVYYCNARLSYRSAWYYGGDRYDYWGQGTQVTVSS
  polyreactivity (PSR sort gate): high polyreactivity

## QFQLVESGGGLVQAGGSLRLSCAASGFILWTYAMGWYRQAPGKERELVAAISTTGGSTYYADSVKGRFTISRDNAKNTVYCQMNSLKPEDTAVYYCAAQVGRGYEVYPVYKYGYWGQGTQVTVSS
  polyreactivity (PSR sort gate): high polyreactivity

## QVQLVESGGGLVQAGGSLRLSCAASGSPFGDSAMGWYRQAPGKERELVAAISVYGASTYYADSVKGRFTISRDNAKNTVYLHMNSLKPEDTEVYYCAATYDTIGDSWGQGTQVTVSS
  polyreactivity (PSR sort gate): low polyreactivity

## QVQLVESGGGLVQAGGSLRLSCAASGIIFYRNAMGWYRQAPGKERELVAAISSSGGRTYYADSVKGRFTISRDNAKNTVYLQMNSLKPEDTAVYYCAADYQWFWVWYGYWGQGTQVTVSS
  polyreactivity (PSR sort gate): high polyreactivity

## QVQLVESGGGIVQSGGSLRLSCAASGSIFQPYAMGWYRQAPGQEREFVAAISRSGGITYYADSVKGRFTISRDNAKNTVYLQMYSLKPEDTAVYYCATGRQVVRSYSEGDYWGQGTQVTLSS
  polyreactivity (PSR sort gate): low polyreactivity

## QVQLVESGGGLDQAGGSLRLSCAASGSIFDRYAKGWYRQAPGTERELVASITWRATSTYYADSVKGRFTISRDNAKNTVYLKMNRLKPEETAVYYCAAAIAFGYRGTVAKYGYWGQGTQVTVSS
  polyreactivity (PSR sort gate): low polyreactivity

## QVQLVESGGGLVQAGGSLRLSSAASGSNFGYKAMGWYRQEPGKEREMVAAISYSGASTYYADSVKGRFTISRDNAKNTVYLQKHSLKPEDTAVYYCAAGWKRFSGRKHYYWGQGTQVTVSS
  polyreactivity (PSR sort gate): high polyreactivity

## QVQLVESGGGLVQAGGSLRLICAASGRIFRGNAMGWYRQAPGKERELVAAISSGGSTNYADSVKGRFTISRDNEKNTVYLQMNSLKPEDTAVYYCAASRVRSYFGRYYWGQGTQVTVSS
  polyreactivity (PSR sort gate): high polyreactivity

## QVQLVESGGGIVQAGGSLRLSCAASGSTLDDYVMGWYRHAPGKDRQLVAAISSSGSGTYYADSVKGRFTISRDNAKNTVYLQMNSLKQEDTAVYYCAAAYSYSGYGYYTYDYWGLGTQVTVSS
  polyreactivity (PSR sort gate): low polyreactivity

## QVQLVDSGGGLLQAGGSLRLSCAASGRIFVYNAMGWYRQAPGKERELVAAITRGGSTYYADSVKGRFTISRDNAKNTVDLQMNSLKPEDPAGYYCAADYAWVSIYDNVPSAPGYDDWGQGTQGTVSS
  polyreactivity (PSR sort gate): low polyreactivity

## QVQLVESGGGLVQAGGSLRLSCAASGRILTFYGLGWYRQAPGKERELVAAISNGGSTYYADSVKGRFTISRDNAKNTVYLQMNSLKPEDTAVYYCAKRILTAPRRNSGYDYWGQGTQVTVSS
  polyreactivity (PSR sort gate): low polyreactivity

## QVQLVESGGGLVQAGGSLRLSCAASGISFGNYAMGWYRQAPGKERELVATISRSGGSTYYADSVKGRFTISRDNAKNTVYLQMNSLKPEDTAVYYCAAQDARRIVYYRYYYWGQGTQVTVSS
  polyreactivity (PSR sort gate): high polyreactivity

## QVQLQESGGRLVQSCGTLRLSCAASGTITVLYKIGRFRQAPGKEREFVASINYGTSTYYADSVKGRFTVSRDSAKNTVYLQMNSLKPEDTAVYYCAAAYRWQDVYRYWVQGTQVTVSS
  polyreactivity (PSR sort gate): low polyreactivity

## QVQVVESGGGLVQAGGSLRLSCAASGFTFAVYAMGWYRQAPGKERELVAAISRSGTRTYYADSVKGRFTISRDNAKNTVYVQMNSLKPEDTAVYYCAADKYRHGYDYWGQGTQVTVSS
  polyreactivity (PSR sort gate): low polyreactivity

## QVQLVESGGGLVQAGGSLRLSCAASGSTFRRYAMGWYRQAPGKERELVAAISSGGSTYYADSVKGRFTISRDNAKNTVYLQMNSLKPEDTALYYCAKRPLKRQIPAVGYDYWGQGTQVTVSS
  polyreactivity (PSR sort gate): high polyreactivity

## QVQLVESGGGLVQAGGSLRLSCAASGSIFPYYTMGGYRQAPGKERELVAVISSGGSTNYAVSVKGRFTISRDNAKNTVYLQMNSLKPEDTAVYYCNARRYWLRYDYWGLGTQVTVSS
  polyreactivity (PSR sort gate): low polyreactivity

## QVQLVESGGGLVQAGGSLRLSCAASGIIFVYYAMGWYRQAPGKERELVAAISYSGGRTYYADSVKGRFTISRDNAKNTVYLQMNSLKPEDTAVYYCAAVDRRGYRYALDYWGQGTQVTVSS
  polyreactivity (PSR sort gate): high polyreactivity

## QVQLVESGGGLVQAGGSLRLSCAASGFTLTLYAMGCYRQSPGKERELVAAISGNGGRTYYADSVKGRFTISRDNAKNTVYLQMNSLKPEDTAVYYCAARYTRSPSDYSTRKFGYGYWGQGTQVTVSS
  polyreactivity (PSR sort gate): high polyreactivity

## QVQLVESGGGLVQAGGSLRLSCDASGRTFNYNAMGWYRQAPGKERELVAAISGNGGNTYYADSVKWRFTISRDNAKNTVYLQMNSLKPEDTAGYYCNAVYRYYREWKYDYWGQGTQVTVSS
  polyreactivity (PSR sort gate): high polyreactivity

## QVQLVESGGRLVQAGGSLRLSSAASGRIFASNAMGWYRQAPGKERELVAAIDQGGGSTYYADSVKGRFTISRDNAKNTVYLQMNSLKPEDTAVYYCAADYITAYPRLYNYWGQGTQVTVSS
  polyreactivity (PSR sort gate): low polyreactivity

## QVQLVESGGGLVQAGGSLRLSCAASGSIFYTYTMGWYRQAPGKERELVAAISWSGGSTYYADSVKGRFTISRDNAKNTVYLQMISLKPEDTAVYYCAAYGTGYYGYDYWGQGTQVTVSS
  polyreactivity (PSR sort gate): low polyreactivity

## QVQLVESGGGLVQAGGSLRLSCAASGIIFFYNAMGWYRQAPGKERELVAAITIGGITYADSVKGRFTISRDNAKNTVYLQMNSLNPEDTAVYYCNKRTDSDSGHWEHDYWGQGTQVTVSS
  polyreactivity (PSR sort gate): low polyreactivity

## QVQLVESGGGLVQAGGSLRLSCAASGITFYPYAMGWYRQAPGKERELVAAISRRGGSTNYADSVKGRFTISRDNAKNTVYLQMNSLKPEDTAVYYCNRDYPIGYRQDPVYYWGQGSQVTVSS
  polyreactivity (PSR sort gate): high polyreactivity

## QVQLVESGGGLVQAGGSLRLSCAASGFTFPYAMGWYTQAPGKERELVAGISWSGGSTYYADSVKGRFTISRDNAKNTVYLQMNSLKPEDTAVYYCNKYVQSGGTYDYWGQGTQVTVSS
  polyreactivity (PSR sort gate): low polyreactivity

## QVQLVESGGGLVQAGGSLRLSCAASGFIFNSYGMGWYRQAPGKERELVAAITKSGGSTYYADSVKGRFTISRDNAKNTVYLQMNSLKPEDTAVYYCAARAYRYSVYRGDYWGQGTQVTVSS
  polyreactivity (PSR sort gate): high polyreactivity

## QVQLVESGGGLVQAGGSLRLSCAASGSIFYRYAMGWYRQAPGKERELVATIRSGGSTNYADSVKGRFTISRDNAKNTVYLQMKSLKPEDTAVYYCAAVTPETQPDSGPVPPMDSWGQGTQVTVSS
  polyreactivity (PSR sort gate): low polyreactivity

## QVHLVESAGGLVQAGGSLRLSCAASGITFSDNAMGWYRPAPGKETEVVAAISWGGGSTYYADSVKGRFTISRDNAKNTVYLQMNSLKPEDTAFYYCNAGGYLISDVDRVGYWGQGTQVTVSS
  polyreactivity (PSR sort gate): low polyreactivity

## QVQLVESGGGLVQAGGSLRLSCAASGRIFATNAMGWDRPAPGKERELVATITRSAGRTYYADSVKGRFTISRDNAKNTVYFQMNSLKPEDTAVYYCAASYWDTEPGYREYDYWGQGTQVTVSS
  polyreactivity (PSR sort gate): low polyreactivity

## QVHLVESGGGLVQAGGSLRLSCAASGSTFNYNAMGWYRQAPGKERELVAAISGSGGSTYYADSVKGRFTISRDNAKNSVYLQMNSLKPEDTAVDYCAGLYGPGRAFDYWGQGTQVTVSS
  polyreactivity (PSR sort gate): low polyreactivity

## QVQLVESGGGLVQAGGSLRLSCPASGFTFDVNAMGSYRQAPGKERELVATISSNGGSTYYADSVKGRFTISRDNAKNTVYLQMNSLKPEDTAVYYCNRGEIYFDNDDFDYWGQGTQVTVSS
  polyreactivity (PSR sort gate): low polyreactivity

## QVQLVESGGGLVQAGGSLRLSCAASGSTLYPYAMGWYRQAPGKERELVAVITLRGGSTYYADSVKGRFTISRDNAKNTVYLQMNSLKPEDTAVYYCATGNSKGRRTVRYGYWGQGTQVTVSS
  polyreactivity (PSR sort gate): high polyreactivity

## QVQLVESGGGLVQAGGSLRLSCAASGRTLRTYTMGWYRQAPGKERELVAAISSSDDSTYYADSVKGRFTISRDNAKNTVYLQMNSLKPEDTAVYYCAKDGLYPTEYGYWGQGTQVTVSS
  polyreactivity (PSR sort gate): high polyreactivity

## QVQLVQSRGGLVQAGGSLRLSCAASGRTFVYNAMGWYRPAPGKERELVAAIDGGGDRTYYADSVKGRFTISRDNAKNTVYLQMNSLKPEDTAVYYCARDPGDTYYYSYPEGDYWGLGTQVTVSS
  polyreactivity (PSR sort gate): low polyreactivity

## QVQLVESGGGLVQAGGSLRLSCAASGTFFIYAMGWYRHAPGKERELVATISTGGSTNYADSVKGRFTISRDNAKNTVYLQMNSLKQEDTAVYYCAAEWLYPHDGGYPRPMDYWGQGTQVTVSS
  polyreactivity (PSR sort gate): low polyreactivity

## QVQLVESGGGLVQAGGSLRLSCAASGSTFVKYAMGWYRQAPGKERELVATITYSSGSTSYADSVKGRFTISRDNAKNTVYLQMNSLKPEDTAVYYCAKKDYTGYGYWGQGTQVTVSS
  polyreactivity (PSR sort gate): low polyreactivity

## QVQLVESGGGLVQAGASLRISCAASGRIFGRNAMGWYRQEPGIEREFVARIRTSGGSTYNADSVKGRFTISRDNAKNTVYLQMNSLKPEDTAVYYCAAAVYTSARGYDYWGQGTQVTLSS
  polyreactivity (PSR sort gate): high polyreactivity

## QVQLVESVGGLVQAGGILRLSSAASGRIFYFYAMGWYRQAPGKERELVAGINWNGGSTHYADSVKGRFTISRDNAKNTVYLQMNSLKPEDTAVYYCAADGYYGQYGGHMGYWGQGTQVTVSS
  polyreactivity (PSR sort gate): high polyreactivity

## QVQLVESGGGLVQEGGSLRISCAASGRTFIGYTIGWYRQAPRKERELFAAITWNGGRTYYADSVKGRFTISRDNAKNTVYLQMNSLKPEVTAVYYCAAPRRVVIGGGDYWGQGTQVTVSS
  polyreactivity (PSR sort gate): high polyreactivity

## QVQLVESGGGLVQAGGSLRLSCAASGSTFGYNAMGWYRQAPGKERELVAAISWSGGSTYYADSVKGRFTISRDNAKNTVYLQMNSLKPEDTAVYYCAALTHYGGYGYTYDYWGQGTQVTVSS
  polyreactivity (PSR sort gate): low polyreactivity

## QVQLVESRGGLVPAGGSLRLSCAASGITFYHYAIGWYRQAPVKERELVAAISRSGGSTSYADSVKGRLTISRDNAKITVYLEMNSLIPEDTAVYYCAARLVRESEPLGYWGQGTQVTVSS
  polyreactivity (PSR sort gate): high polyreactivity

## QVQLVESGGGLVQAGGSLRLSCAASGSIFIANAMGWYRQAPGKERELVAAISSSDSSTYYADSVKGRFTISRDNAKNTVYLQMNSLKPEDTAVYYCAATYWYWYREGYYWGQGTQVTVSS
  polyreactivity (PSR sort gate): high polyreactivity

## QVQLVESGGGLVQAGGSLRLSCAASGITFLRNTMGWYRQAPGKERELVAAISRCGSTYYADSVKGRFTISRDNAKNTVYLQMNSLKPEDTAVYYCNAPSYVQATDYDYWGQGTQVTVSS
  polyreactivity (PSR sort gate): high polyreactivity
